Assay [1] addresses GFP-hIL6 fusion protein (N-terminal 6x His-tag, mGFP, gs linker, human interleukin-6), purified (human). The experiment in a line: flow cytometry of permeabilized E. coli IT cells displaying the binder-mRFP-CBD on inclusion bodies, treated with GFP-IL6; GFP channel. For orientation: In flow cytometry, cells or beads pass a laser one at a time.
For assay [2] the target is unchanged. The assay is described as follows: flow cytometry of permeabilized IT cells treated with GFP-IL6.
Assay [3] has the same target. The experiment in a line: flow cytometry of permeabilized IT cells, treated with mGFP-IL6; GFP channel [panel IL-6].
Assay [4] addresses sfGFP. The assay is described as follows: flow cytometry of permeabilized IT cells, treated with sfGFP; GFP channel [panel sfGFP].

For the substance “InVLR5c-mRFP-CBD fusion protein (In-VLR5c repebody fused to mRFP and family II CBD, displayed on inclusion bodies in permeabilized E. coli IT cells) (designed binder)”, the GFP fluorescence value in assay [1] came to 17. The substance further had a GFP fluorescence in assay [2] of 10.

With negative control (f), the GFP fluorescence value in assay [3] is 26.2; in assay [4], 15.2.

For the origin of these results see patent publication US20170192009A1.
